Substrate: Nc1ncnc2c1ncn2[C@@H]1O[C@H](COP(=O)(O)OP(=O)(O)OP(=O)(O)O)[C@@H](O)[C@H]1O
Assay: purified protein
Format: biochemical, Homo sapiens
Conditions: Mg2+ ATP binding site

B1: hCINAP (Homo sapiens) (protein)
chain: MLLPNILLTGTPGVGKTTLGKELASKSGLKYINVGDLAREEQLYDGYDEEYDCPILDEDRVVDELDNQMREGGVIVDYHGCDFFPERWFHIVFVLRTDTNVLYERLETRGYNEKKLTDNIQCEIFQVLYEEATASYKEEIVHQLPSNKPEELENNVDQILKWIEQWIKDHNS
Protein B1 has a Km of 45 ± 5 µM and a kcat/Km of 140 M⁻¹ s⁻¹.

B2: hCINAP-H79G (Homo sapiens; H79G) (protein)
chain: MLLPNILLTGTPGVGKTTLGKELASKSGLKYINVGDLAREEQLYDGYDEEYDCPILDEDRVVDELDNQMREGGVIVDYGGCDFFPERWFHIVFVLRTDTNVLYERLETRGYNEKKLTDNIQCEIFQVLYEEATASYKEEIVHQLPSNKPEELENNVDQILKWIEQWIKDHNS
Protein B2 has a Km of 93 ± 8 µM.
